In PMC3785714 (Biochemical Society transactions, 2012):

Biological target: the molecule itself

B1: p150CC1 (residues 221-509) of dynactin p150Glued (domain or fragment, UniProt P13496 221-509, looked up)
chain: ALLEAQKTSAELQAQLADLTEKLETLKQRRNEDKERLREFDKMKIQFEQLQEFRTKIMGAQASLQKELLRAKQEAKDAIEAKEQHAQEMADLADNVEMITLDKEMAEEKADTLQLELESSKERIEELEVDLELLRSEMQNKAESAIGNISGGGDSPGLSTYEFKQLEQQNIRLKETLVRLRDLSAHDKHDIQKLSKELEMKRSEVTELERTKEKLSAKIDELEAIVADLQEQVDAALGAEEMVEQLAEKKMELEDKVKLLEEEIAQLEALEEVHEQLVESNHELELDLR
stoichiometry N: 2
